Measured values taken from paper PMC7719688.

Target: T1, ArcA-His6 (acetyl phosphate present or absent) (Escherichia coli K1 Rs218 (O18:H7:K1)) (UniProt P0A9Q1)
T1 sequence: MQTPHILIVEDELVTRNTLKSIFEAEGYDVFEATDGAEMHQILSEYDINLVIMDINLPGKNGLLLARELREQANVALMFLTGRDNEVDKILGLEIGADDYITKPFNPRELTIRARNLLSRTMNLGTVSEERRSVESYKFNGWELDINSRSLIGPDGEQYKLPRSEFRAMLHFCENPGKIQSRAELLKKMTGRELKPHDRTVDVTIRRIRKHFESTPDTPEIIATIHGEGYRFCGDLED
Experiment: EMSA
Conditions: 10 mM Tris-HCl pH 7.4, 50 mM KCl, 0.1 mM EDTA, 0.2 mM DTT

Row | Sequence | binding (+/- 30 mM acetyl phosphate, 37 C 30 min, 6% PAGE in 0.5x TBE, GelRed stain) | binding ([…])
1 | ACGAACTGTTCACCGCCACTCGCGGTCAGGGCGCACAGCTGAACGGCTACCGTCTGCGCGGCAGCACCGCTCGCGATCTCGACGGTACTATTCTGGCGACCGGCTTCCCGTTCAAAGCAAAACAGTACGCCACTACCTACATCAACATCGTCGGCA (double strand) [suhB gene fragment] | no binding | 
2 | ATTTGGTTGTAACACGGCGTATGGCACATGCGTCGTTAGCGGTCTGGGGACGTTAAAGGGGACAATCCACTCCTTGCTCGAGCAGACAAACCAGGTAGCCGGAATGTGCAAGTCAATGAGGATGCTGATAAGACGCCTAACCAGCGTGGCGATTCGGTTTGACGCCTGGGAAGAGACCAGGGTGCAACGATGAGGGCATTTATGGAACCGCGACAAAGTGTGGTGCCGTAACTGGCTAAGTGCTCTCAGC (double strand) [sRNA-17 promoter (PsRNA-17)] |  | binds
